We go through 1 substance from PMC4287573.

For this experiment, the target named is HA-tagged HNRNPK (heterogeneous nuclear ribonucleoprotein K), wild type (human) (UniProt P61978). Put plainly: co-IP; anti-HA agarose beads on lysates of Huh7.5 cells stably expressing HA-tagged HNRNPK or its deletion mutants, 48 h after electroporation with a subgenomic JFH1 replicon or genomic HCV RNA; lysis buffer 20 mM Tris-HCl pH 7.5, 0.5% Nonidet P-40, 1 mM sodium deoxycholate, 100 mM NaCl; 3 h at 4°C; elution with HA peptide; immunoblot; cells with non-tagged HNRNPK as control. For orientation: Replicon systems follow genome replication, usually without infectious particles.

The substance HCV core protein (natural protein) showed a percent of the intracellular HCV protein coprecipitated of 1%.
